From patent US20060240053

T1: peptide substrate EFDLELIEED (SEQ ID NO: 31)
T1 chain: EFDLELIEED

T2: RP1 retropepsin inhibitor Ac-Leu-Val-Phe-aldehyde (Bachem N 1395.0005)
T2 chain: LVF

T3: RP2 retropepsin inhibitor Ac-Leu-Leu-Met-aldehyde (Bachem N 1315.0005)
T3 chain: LLM

T4: RP3 retropepsin inhibitor Ac-Leu-Leu-Nle-aldehyde (Bachem N 1320.0005)
T4 chain: LLX

T5: corneodesmosin extracted from human stratum corneum, Q15517
T5 chain: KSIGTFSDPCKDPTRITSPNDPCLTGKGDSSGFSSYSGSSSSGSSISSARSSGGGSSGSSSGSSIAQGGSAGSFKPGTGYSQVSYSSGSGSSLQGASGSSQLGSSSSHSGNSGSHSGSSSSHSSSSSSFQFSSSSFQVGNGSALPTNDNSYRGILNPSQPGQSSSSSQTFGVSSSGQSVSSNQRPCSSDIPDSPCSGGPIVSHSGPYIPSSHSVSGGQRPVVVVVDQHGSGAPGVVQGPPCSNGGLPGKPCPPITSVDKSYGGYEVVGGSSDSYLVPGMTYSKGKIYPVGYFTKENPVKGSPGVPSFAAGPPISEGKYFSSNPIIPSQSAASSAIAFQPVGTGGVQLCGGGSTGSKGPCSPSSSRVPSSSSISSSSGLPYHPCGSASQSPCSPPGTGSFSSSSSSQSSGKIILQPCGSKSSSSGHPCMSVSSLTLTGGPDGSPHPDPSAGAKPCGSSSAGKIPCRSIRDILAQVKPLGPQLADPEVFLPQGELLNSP

B1: recombinant fusion protein GST-SASPase delta1-84 (SEQ ID NO: 4) (protein)
chain: MAGSGARSEEGRRQHAFVPEPFDGANVVPNLWLHSFEVINDLNHWDHITKLRFLKESLRGEALGVYNRLSPQDQGDYGTVKEALLKAFGVPGAAPSHLPKEIVFANSMGKGYYLKGKIGKVPVRFLVDSGAQVSVVHPNLWEEVTDGDLDTLQPFENVVKVANGAEMKILGVWDTAVSLGKLKLKAQFLVANASAEEAIIGTDVLQDHNAILDFEHRTCTLKGKKFRLLPVGGSLEDEFDLELIEEDPSSEEGRQELSH
B2: activated SASPase (SEQ ID NO: 6) (protein)
chain: ANSMGKGYYLKGKIGKVPVRFLVDSGAQVSVVHPNLWEEVTDGDLDTLQPFENVVKVANGAEMKILGVWDTAVSLGKLKLKAQFLVANASAEEAIIGTDVLQDHNAILDFEHRTCTLKGKKFRLLPVGGSLEDEFDLE

Legend:
[1] = biological target: T1, peptide substrate EFDLELIEED (SEQ ID …)
[2] = biological target: peptide substrates with amino acid substitutions (among SEQ ID NO: 32, 33, 34, 35)
[3] = biological target: T2, RP1 retropepsin inhibitor …
[4] = biological target: T3, RP2 retropepsin inhibitor …
[5] = biological target: T4, RP3 retropepsin inhibitor …
[6] = biological target: casein substrate sold under the name Enzchek (Molecular Probes)
[7] = biological target: T5, corneodesmosin extracted from human …
[8] = biological target: oxidized beta-chain of insulin (Sigma)
Chain of oxidized beta-chain of insulin (Sigma) (chain, as listed by the source): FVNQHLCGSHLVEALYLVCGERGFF

Row | Protein | autocleavage in acetate buffer pH 4.5, SDS-PAGE over time | hydrolysis of quenched peptide substrate (fluorescence 340/450 nm) [1] | hydrolysis of quenched peptide substrate (fluorescence 340/450 nm) [2] | kinetics for casein hydrolysis (fluorescence 485/535 nm) [3] | kinetics for casein hydrolysis (fluorescence 485/535 nm) [4] | kinetics for casein hydrolysis (fluorescence 485/535 nm) [5] | caseinolytic activity [6] | % Residual corneodesmosin T24 h/T0*100 [7] [%] | hydrolysis of the substrate followed by HPLC [8]
1 | B1 | A decrease in the whole form GST-SASPase C27 is observed over time, which demonstrates an autocleavage and, consequently, an autoactivation | the natural (wt) peptide is effectively hydrolyzed by the SASPase | amino acid substitutions in the sequence of this peptide can generate substrates for which the SASPase has greater affinity | – | – | – | – | – | –
2 | B2 | – | – | – | the kinetics for casein hydrolysis, in the presence of the RP1 and RP2 retropepsin inhibitors, are lower than the control | the kinetics for casein hydrolysis, in the presence of the RP1 and RP2 retropepsin inhibitors, are lower than the control | the kinetics for casein hydrolysis, in the presence of the RP3 retropepsin inhibitor, are significantly higher than those obtained under the control conditions | Its caseinolytic activity was, moreover, demonstrated (results not shown) | 75 | These results show that the activated SASPase is capable of degrading insulin
